Results reported in the supplement of paper PMC10567573.

B1: RTN1 (parent)
chain: VVAYLALAALSATISFRIYKSVLQ
B2: STX11 (parent)
chain: FQRAMHDYNQAEMKQRDNCKIRIQ

Variants of: B1
Test: protein stability index of a GFP-peptide fusion (GPS, HEK-293T) (PSI 1-6); higher = more stable
Settings: c terminus: a fixed tail appended
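Note: lentivirally expressed fusions sorted by FACS into six bins by GFP to DsRed ratio, PSI derived from sequencing read proportions per bin multiplied by bin number.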

Protein stability index of substitutions, site by site:
K20: E 5.17, D 2.89, G 3.57, S 2.68, P 2.58, W 2.77, R 4.17, H 3.98, M 3.61
A8: I 3.23, T 2.32, Y 2.76, F 1.68, L 2.31, S 1.95, Q 4.3, E 2.46
V22: W 4.26, Y 4.13, S 2.57, T 2.38, D 3.13, L 2.33, H 2.31, K 4.89, Q 2.7
T13: E 3.33, W 2.05, N 2.54, F 2.43, H 2.61, M 1.58, G 1.32, K 2.77, A 1.2, I 2.86, P 2.21, C 1.87, R 2.82
L23: C 3.13, M 3.52, R 2.55, H 3.01, I 3.31, E 2.65, S 1.66, A 2.28, K 2.66, V 2.5
S11: K 2.4, W 2.55, N 3.04, A 3.26, G 2.02, R 2.44, T 2.81, M 2.45, Y 2.33, P 2.49
L7: S 2.63, P 2.7, V 3.13, Q 2.07, F 2.47, Y 3.97, A 3.97, W 4.04
A9: T 2.52, N 3.05, K 2.25, I 2.31, Y 3.25, W 1.94, P 3.77, L 2.44, D 2.48, M 1.46, G 1.53
V1: E 3.26, M 2.21, D 2.2, C 1.99, L 2.56, S 2.55, H 1.68, N 2.64
I18: W 4.75, V 4.01, P 3.69, F 2.06, A 1.05
L10: P 2.69, H 2.74, F 2.31, G 3.08, R 1.98, T 2.51, C 2.2, Y 2.83, N 3.25, Q 2.41
A6: I 1.91, F 3.07, P 2.32, G 4.25, C 2.86, Q 1.42, V 3.12, S 2.88, D 3.37, E 2.6
S21: F 2.18, E 2.38, Q 2.56, R 1.99, M 2.42, N 1.52, W 2.52, A 1.89, I 2.91, V 4.53, T 3.04
V2: Y 3, H 4.06, T 3.88, L 2.63, W 1.31, E 2.41, Q 3.03
S15: H 3.38, I 1.84, G 2.29, F 1.27, T 2.56
Y4: L 2.37, I 4.11, K 2.3, T 4.26, F 2.5, N 3.01
Q24: Y 3.94, R 3.71, T 2.08, N 3.38, S 2.03, V 3.35
R17: D 2.83, N 4.14, Y 3.59, P 2.35, H 2.7, M 2.83
A3: W 2.72, F 2.82, I 2.65, C 3.67, E 3.04, Q 2.68, L 2.06, G 1.88
L5: P 2.31, H 2.85, N 2.34, R 1.78, A 2.47, W 3.59, E 1.58, G 1.95, V 1.63, K 1.89, M 2.54, F 3.22, Q 2.8, I 2.01, D 2.42
Y19: F 1.46, E 4.55, M 2.3, L 1.46, V 2.12, W 1.49, Q 3.66, P 2.41, S 2.1, A 2.51
A12: Y 2.39, H 3.12, W 3.1, F 2.85, V 3.42, T 1.95, E 2.05
I14: R 3.01, K 1.96, T 2.12, H 2.72, M 3.4, L 1.7
F16: D 2.94, H 3.82, Y 3.52, E 1.76, L 2.57

Variants of: B2
Test: as above
Settings: c terminus: a fixed tail appended

Protein stability index, by site and new letter:
F1: A 3.87, C 3.56, D 4.15, E 4.17, G 3.88, H 4.18, I 3.46, K 3.98, L 3.29, M 3.82, N 4.4, P 4.17, Q 4.13, R 3.28, S 4.1, T 4.11, V 3.46, W 3.69, Y 2.78
Q2: A 2, C 1.79, D 4.2, E 4, F 2.84, G 3.82, H 1.81, I 2.27, K 3.14, L 2.65, M 2.69, N 3.61, P 2.76, R 3.02, S 3.41, T 2.63, V 2.55, W 2.19, Y 2.95
R3: A 2.94, C 1.65, D 3.44, E 3.99, F 2.07, G 2.88, H 2.97, I 2.38, K 3.01, L 2.76, M 1.62, N 3.12, P 2.99, Q 3.28, S 2.51, T 2.93, V 2.86, Y 2.25
A4: C 2.21, D 3.4, E 3.15, F 2.86, G 2.19, H 2.75, I 2.18, K 2.54, L 2.46, M 2.22, N 2.78, P 3.3, Q 3.56, R 1.9, S 2.8, T 2.69, V 2.28, W 1.77, Y 2.59
M5: A 3.93, C 2.73, D 3.65, E 3.77, F 1.8, G 2.9, H 2.16, I 2.16, K 2.86, L 3.18, N 3.1, P 2.64, Q 2.95, R 2.78, S 2.63, T 3.15, V 2.63, Y 1.88
H6: A 2.74, C 2.7, D 2.92, E 4, F 2.32, G 2.9, I 2.42, K 2.74, L 2.91, M 1.96, N 3.3, P 2.5, Q 2.66, R 2.16, S 1.9, T 3.06, V 2.8, W 2.43, Y 3.26
D7: A 2.67, C 1.71, E 3.09, F 1.17, G 2.18, H 2.3, I 1.7, K 2.56, L 1.43, M 2.85, N 2.66, P 2.23, Q 2.24, R 2.12, S 2.21, T 2.23, V 2.15, Y 1.67
Y8: A 3.64
